Results on 47 sequences are retold here after the NTF2 design screens of Basanta et al. (2020).

The series can be described thus: protease stability score; higher = more stable; yeast display proteolysis, trypsin and chymotrypsin.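 Also: relative to predicted unfolded state with 0 unfolded-like and 1 meaning tenfold more protease.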
“DERHKMIKDFAHLMLRARKTGDWDVMTRLFDPNTRVTQGDFELHGMESFSDWLHELHRQVPNVVEHDHSVDAFDGRVHLKTEERINGRILRIRIIIIVVDGKIKELRIEVD”: the protease stability score stood at 1.37. Next, “DEERDETRELLRRLQELLRTGDEEEIRKLADPHVRSDVNGREYHGRDWATHLIMRFDHLDIERIRIFDGRIETDFRVEIGDKTFQTRMHVRKIDGRWNIKEIKII”: 1.55. Under “SELNEKLKHLIELHWRVLETGDEHMMTRLLDPHARLEYGDKELHGREEVTHWHYEILEKVKNLQIHLSDYRIVNGQIHLHVVENVNGVTTRRFINIEKIDGRWHDREIRIE” stands 0.757.

With “DEHENVMHDAIENIEHMIHTGDEHISERLLDPNVKLDVNGRRFHGWEEFNKWLHHMGADVVDHKRLESQGDKVHTDGRVFFNGREYDSEINSLKVNGRWLITEVRIH”, the protease stability score is 0.337.

“SEDEDHARLMFELLLRMITTGDEESLRELVDPNVRVSVDGVDLHGWDSLSKFLKHIRIRVDHSEMHDMRVIDGVLQANTHMQITVEFNGRRVQRQVETRVEVVKINGKWAIHRFSVH” showed a protease stability score of 2.55. In turn, “SEDDEHMKEIWRILQHSLETGDFHILSRMADPNAKFDIGDKEIVGMHLWIEELLRYKNRQIRVHYHEMRVYDGKIDSRERYDVKYGDKELTTELRVHARKIDGRWVLEDVRVH” displayed a protease stability score of 0.668. Sequence “DEQEEHVEKLVHLLLRRFKTGDEEFWRRLADPRTRLHVGDKHHHGRETFMKVFRHLIEDLGIDHRIEKHFEVINGVLHIHQIIVVDGQEFELRIHVFVVDGKVKSIDVSIHTR” gave a protease stability score of 0.896.

Take “SEEEEHAKHIARLWMESFYTGDEHHMSHLLDPNVRIIIEIGDKSDEFHGREETVKWVRKYLREMRLKNFEIHDQRVFNGVANDDTIVHGNVDGRERNIRTHIIIVVVNGRVKEVKVEVK”: the protease stability score amounted to 1.6.

Regarding “DELEEFLHTIMELVVRNMFTGDEDSFNNLADPDVKSHINGKNAVGREEIIRVWKEWVEEIRTTHYDIHDFTIIGDKAHSDTRVDGTFNGVRDTIDTRVIVLVVDGRLKSLEIRMH”, the protease stability score turned out to be 0.986. Sequence “DEIERKVIEFWHLLRHALITGDEDLIEDLFDPHVRTDIGDKEHHGREEFRRLWREHGIRIKDVHIEHVTIIGNKVDMEVRFHLEINGRETHKRVILVAQKIDGRWRIREYHVK” registered a protease stability score of 1.88. Under “SEVEDFLHEFVRKLVRVLDTGDWEVLEKMFDPNTRFHIGDKELHGREEFVKFTEELGIRVRWELKDIRFQGDKAETIGTERVDFNGKEITTDVTFEVLLFNGVIKEIRIRRR” stands 1.36; under “SEDEEVIKKHLKEFIDVLRTGNEEMSSYLADPNARVVDENEFSHGREDMTRIVSQARLHHIHVHDFELQGDKLLLDVHVDGVINGRRRRDKFHFVWLKYNGRWFLHSVHIR”, 0.652.

For “DEKDEKLLRFAHEIIELFLTGNEERFTELLDPRVKLDIDGKNAVGREETQRLWEEILHRIDVMHIRIHRYKAQGNKVILDGLIHIEVGDKNEERHSRLHIHVYDGKIKSIRLEYH”, the protease stability score is 2.08. Next, “DEHHEVSEKVAKLFLEIWETGDWKTLKRLADPRVRTHIIIGDKTINEHGRENYIRSTVEFLERFPNMRYEIREVRVIGDKIETQGEMNVNGKTFDVIIELIIIDGRIKEVRVENR”: 1.08; “TEEEEEFHEILEHFLTQLHTGDWEEIIKNLDPNVLFHFNGVLFHGREEVSRFLVEWFDKIKGMRIHIHELRIVGDKATIDTRLDVGEKTHRVIIHIRKINGRWLITEIRIE”: 2.02; “DDEKEITHTLSEIWIHTVRTGDEDTATNLVDPHARLDYNGREFHGRELISELMIRHLTEWRITHIHIDHVRVINGRFEIHSHQDGHFDGVRRKVEVHIDIIIIDGVVKEIRIRVH”: 1.17. For the sequence “DEHEMEIRDFIDKFLQSLRTGDEEKVHKLIDPHVRTQIDGQEFHGREEFLRFLRTHLERLGVDHIDVDLQQIEIVGEKINIHGTLTIEIDGRYLRHTFHLRVEKVNGKWIIESIRMT”, the protease stability score was found to be 2.15. For the sequence “SEEEEMVKIADELIRRSWDTGDEDLFLHLADPNTRIFFNGRTVHGREEVEKMIRHMRIDHYELKRIDVYNGQVVIHGKIEITVNGVTKTHEVDIIIEKINGKWILRSIHHK”, the protease stability score was found to be 1.11. The sequence “DERHKHDIEVAKEFLEVERTGDEHLLRRLADPHVLSNINGVHNHGRETVIEFWREWFEEWRVTEIKIRHLDAYDGRVRIEGRMRVIYDGREHTIDSEFRLVVVNGRLKSMELILH” showed a protease stability score of -0.043. “DEDTREAEKMYRLFRHLFLTGDWEHTYQLADPHVRTDFNGVEWHGRELALEILLHFLEILGVDHITLKRQEIHIVDGRLLVILHLELRAENHSEDLLIIVIMNKFDGRWHVESEEIKVR” had a protease stability score of 0.539. Sequence “DENERRYNELSRLLFEWFLTGDEKMLSNFMDPNAKAEVNGKEEHGREELIRIYHDWLRKAGVDHIQPRHLETRHFDGRVHVHINVDVLINGKILHIHIDIDMVKIDGKWIIKHIRIHER” yielded a protease stability score of 1.2. As to “SEYERDFRYAFNIYARDVLTGDEESLRRLLDPNMRIDVNGVHIHGREHLLQIWHEIRIHHFEIDLKHIEVQGNKIHVHGETHIDGEINGQRDEFKIRDSLLVLKVNGKWIFKRFIVD”, the protease stability score came to 0.951. Under “HEEHEKLRQLIEWYLEMLRTGDEESWLHLADPHVRNDVIYDGRHFQSHGRDRALDLLRLMLDLLGAKHLEVKRYRVIDGRVELDGRSRVGDKYQEMHLHLDVFNGRIHEMRIEIR” stands 0.58; under “DEDHEIAKKASDIWWHILRTGDEDQLHKMMDPHVRTTVGDKEHHGREAVEHLTHFYKNMQIHVTHERFHVQGDKVHVEREGHLRIGDKRVEVRVRIEIHKVDGKWIIHTIEMELR”, 0.425; under “DEEDEHALRMARLWWKALTTGDEELLHKLMDPDVRVEINGVEIHGRETYERFLHKLRRDLGVKHIEIQFHHIELYGEKIIIEGTIFIRQGDKEHKERSIIILVVVDGRIKSSKIILL”, 2.19.

As for “SDHRRLLEELLKIIIKAMMTGDESTLERMFDPNVRINIDGVDDHGWESFDRMFHELRIDHARVEYIDVVNGRARVHTNFEVHFDGRRIHWETEIVVVIVNGRNREVSIIRH”, the protease stability score was 0.739. Sequence “DDEEKRYRLFYKIALTMFETGDWQILHELADPHVKVRVGDKDLHGREELTHFWKELVERYPNMKIRLDDLSLQGEKIHIEGTWHFDGKELTTHIDLIMVDGKLKETRYEHK” returned a protease stability score of 1.4. “DEDERDARKTSHLFLEAFTTGDEDLLRDMVDPNARSIVNGQEEHGWEVIHKTVRELQERYPNVKIDVNDWSYEVQGDKMRTILHFIIHFDGVHVEIHIHVFSRKINGRWVIRRIEYHER” displayed a protease stability score of 2.07. In turn, “SERDEVAHLAFEYLINTHQTGDWRLFKEYLDPNVRFHVGDKFFHGRESVSKFFEEEMHRLGFKHIEMEHFEQQGDYLTINLTVRVDGQEYKLIYFALKVDGRWILRSITFE” yielded a protease stability score of 1.38.

For the sequence “DEEEEKLRFAVELFEETFRTGDEKLKEHLADPDVRVHYGDFEYHGRETLERWTRFVKGVKVELKSIDIINGVLDLDGTLHFNGRTFDTRYLALKINGRWILKRVIIH”, the protease stability score amounted to 1.49. For “NEDEREFRIFLELFILAMRTGDETTFKKLLDPDVKFRINGKEYHGWEEVWHVLEEIRIHDIKLTDMERVGDKLHLITRVEGEFDGRRHEIDTRLHVRKIDGRWLLRTVEIS”, the protease stability score came to 2.13. Next, “DEETRDLHHALRIVLHILRTGDFSHLFEYADPHVKIDINGKEVHGMEQMHHEIERLYFELGVDNVTVQHKRIIVYDGRVLVHMISHIGDKWRDIIIIFLKVNGRWRLHSIEVK”: 1.72. “SEQEELSKKFFHDLLHAMKTGDESSLYSFLDPNMKHEFDGKVIHGMEEVARIIVEKLERADHHDIRIHDEKMQGDYLVMDVRIIINIDGKEVIKDIKLTWLKIDGRWHVTSVVLH” had a protease stability score of 1.73. As to “SEEEEVIDEAIHILEKHMQTGDWRVLRELADPNMRVHVNGRDLHGREQYIRWIEFLLKRVPNLKLDHFVLDHQHVVNGVAHLEGRLTYTINGVIHKTRTHFHIFKFDGQWRLESQSER”, the protease stability score is 0.951. “SEEEHLFEFVIRVIYHAMKTGDWEFWERYLDPHVRYQQGDKEHHGRKMTLHYLERLSDELGVTRIEVDLKHIHVYNGRVEIIGELNINGRRTEVRITSEKINGRWTVKELHIV”: the protease stability score amounted to 1.55. For the sequence “DHLEDDLDHYIRVLIKSWQTGDEELTEKLIDPRVRVEVGDKEFHGRKIFSEIAVHWRIKHHTIEHINTVGDKATIHSHVVLHFDGREITTTTIYFIEKVNGKWLLKSMHIQ”, the protease stability score turned out to be 2.5. Next, “SEKEHIMRRASQLIRDYLITGDWRSLEKLIDPNAQFEVNGRHIHGREEVSRIYLQHLNELGVERIDYIERDSDMQGEKVHTYGDLHVNGVTFHVIIFVLKIDGRWTIKKEIWSDK”: 1.15. Under “EEEEKEIKDLLREIFEMIVTGDWRLIRENMDPNARMEVGDKEVHGRDHVIHHLHNLGFKHIKEKDINVQGEKISIHGHVDVNGRSRHVDFIAHKVNGKWLYKSFHFH” stands 0.826. For “DELTNEHERYLHFLWEMIKTGDEENLENLVDPHARLEFENREFHGREDVRKWLVEIRFHRVHLRRMEVQGNKVILDTELDGEFNGQRVRHTTKTHALKVNGQWLLHELIIK”, the protease stability score turned out to be 1.25. For “SEEEKILKEIAHLLIRSLITGDWKILRDLMDPHTKIHILQGDKVHNFHGWKAMTETLKQKLDRIDHVNFELRHMEVFDGRVHIEGVLHLNFDGQERFTEVRIIVVVIDGKLKEFELRIH”, the protease stability score is 2.16. In turn, “SEDEEEVKHMVDEWWKQVLTGDEESLMRLIDPHAKLDFENVTYHGRDELSRYLTKLLREIRFRDIKIHDVRVYDGKVDLHTHMNIIVDGRTHILDTRMIIVKINGRWYIHQVRIK” had a protease stability score of 2.42.

For “SEEEEHTRHMYELFWRILHTGDEKSFHELADPNVLLRVGDKNFHGREEAERFLHEYWERYKNMRIEMKTFDFQGNKVHSEGVININGVKIRSELELVVFDGRLHSVIVRHR”, the protease stability score worked out at 2.43.

For the sequence “SEDEEHARRVLEEMIDARLTGDEDKYETLLDPNVRFHQGEWSFHGMEELSRIVHHEARRIDHHEVRLKELRVVNGRVHSRTLLKLDFNGVEYRLKIELIITKVDGRWLLKEVRVR”, the protease stability score is 1.25. “TEEEKHARLVKEHIVEILKTGDEREWMERADPNMYMTVGNKEQHGREQVMHLIERLLKELGIKHSHIKRLELQGDKVHLDVELNFNGVTRDSRLIFIVINGRFHEVIIIIH” registered a protease stability score of 0.947. “SEEDEHMRRLVEIIIHNWHTGDEEKLANMMDPNAKSNINGVELIGRDLITSFLKEELKRLGVKHVHDTEIHLQGNKSIIHSRVHVNGVDIEMEIIIIIIDGVIKEVEWRRR” showed a protease stability score of 1.96. Under “SEIEEDSRKASRDLMNSIRTGNEEVLKEMADPHVRTDINGREIHGMEKWLNELSEFLEKFKGAKIDLSLKDIRIQGEYIHIHMHVHLRFNGKSDNKDIEIIALKVDGRWLIQEWRIR” stands 0.834; under “DKDERMRNEAFKITEHLHHTGDWHTRSRLADPEVQLIIGDKEYHGRETASEVLHKYLKRLGVDHLELKHFEVKMFDGQLHIHLHIELHINGVIYEVHIHIVMEKINGRWVIKHERIEFR”, 1.01.
